Assay [1] deals with human parkin, full-length (human) (UniProt O60260). The assay is described as follows: ITC. In general terms: Isothermal titration calorimetry measures the heat released or taken up as one component is titrated into another.
A further assay addresses parkin/pUb (UniProt O60260). The assay can be described thus: ITC.

What is called Kd is the concentration at which binding is half-saturated.

Sequence of human parkin, full-length (human) (O60260 whole entry): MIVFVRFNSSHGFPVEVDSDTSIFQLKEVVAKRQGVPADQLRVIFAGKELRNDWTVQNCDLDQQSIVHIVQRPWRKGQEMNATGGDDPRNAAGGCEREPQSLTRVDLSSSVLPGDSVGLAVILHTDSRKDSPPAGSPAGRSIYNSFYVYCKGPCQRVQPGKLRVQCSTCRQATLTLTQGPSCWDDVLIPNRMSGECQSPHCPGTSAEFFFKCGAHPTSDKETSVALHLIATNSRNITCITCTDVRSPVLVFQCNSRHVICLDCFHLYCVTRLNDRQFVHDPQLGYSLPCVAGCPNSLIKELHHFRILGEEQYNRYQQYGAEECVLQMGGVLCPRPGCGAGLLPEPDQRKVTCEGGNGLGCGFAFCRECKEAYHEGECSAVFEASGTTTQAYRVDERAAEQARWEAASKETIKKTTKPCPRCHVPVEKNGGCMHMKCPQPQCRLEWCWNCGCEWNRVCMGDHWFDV
Sequence of UbcH7~Ub (P68036 whole entry): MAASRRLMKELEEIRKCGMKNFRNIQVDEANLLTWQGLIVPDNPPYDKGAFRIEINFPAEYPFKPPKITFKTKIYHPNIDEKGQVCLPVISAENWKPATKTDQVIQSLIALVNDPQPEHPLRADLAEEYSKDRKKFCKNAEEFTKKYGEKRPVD
Sequence of UbcH7~Ub (P0CG63 1-76): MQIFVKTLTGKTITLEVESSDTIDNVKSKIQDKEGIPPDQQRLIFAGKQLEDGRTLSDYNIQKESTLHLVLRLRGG
Sequence of parkin/pUb (O60260 whole entry, chain 1 of 2): as the sequence (O60260 whole entry) above
Sequence of parkin/pUb (P0CG63 1-76, chain 2 of 2, further chain): as the sequence (P0CG63 1-76) above

In turn, “CISD1-pUb (CISD1-Ub phosphorylated at S65 of Ub by PINK1) (from UniProt Q9NZ45 32-108; P0CG63 1-76)” registered a Kd in assay [1] of 428 nM. “UbcH7~Ub (from UniProt P68036 1-154; P0CG63 1-76) (complex)” returned a Kd with parkin/pUb of 40000 nM. As for “mG2^T-pUb (mG2^T-Ub phosphorylated at S65 of Ub by PINK1) (from UniProt Q8IXI2 402-582; P0CG63 1-76)”, the equilibrium dissociation constant (Kd) in assay [1] stood at 894 nM.

These data come from doi:10.1101/2021.06.01.446590.
